# From publication PMC10942606
# How the values were obtained:
# Test in all cases: MST
# [1] = biological target: T1, Pcf1_KER (Schizosaccharomyces pombe, UniProt Q1MTN9 56-170)
# T1 sequence: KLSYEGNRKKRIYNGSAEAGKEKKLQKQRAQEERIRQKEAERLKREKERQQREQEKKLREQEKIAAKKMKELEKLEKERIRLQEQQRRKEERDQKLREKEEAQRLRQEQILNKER
# [2] = biological target: T2, Pcf1 WT;Pcf2;Pcf3 (Schizosaccharomyces …, UniProt Q1MTN9;O13985;Q9Y825 1-544;1-512;1-408, ||)
# T2 sequence 1: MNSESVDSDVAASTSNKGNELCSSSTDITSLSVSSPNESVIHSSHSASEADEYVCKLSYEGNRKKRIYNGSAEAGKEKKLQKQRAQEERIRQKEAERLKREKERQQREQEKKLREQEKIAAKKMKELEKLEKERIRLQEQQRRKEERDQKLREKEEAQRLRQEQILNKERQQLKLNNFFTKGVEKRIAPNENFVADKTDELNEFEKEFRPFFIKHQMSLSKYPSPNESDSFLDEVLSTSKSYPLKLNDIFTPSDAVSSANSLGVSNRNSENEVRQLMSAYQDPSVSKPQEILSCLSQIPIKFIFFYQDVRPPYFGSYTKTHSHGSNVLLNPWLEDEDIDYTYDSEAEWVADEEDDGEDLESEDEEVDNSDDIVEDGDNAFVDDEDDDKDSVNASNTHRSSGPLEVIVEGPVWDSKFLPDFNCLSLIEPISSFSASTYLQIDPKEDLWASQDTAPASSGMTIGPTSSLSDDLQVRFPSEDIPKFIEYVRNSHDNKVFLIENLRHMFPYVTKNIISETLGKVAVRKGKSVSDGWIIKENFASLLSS
# T2 sequence 2: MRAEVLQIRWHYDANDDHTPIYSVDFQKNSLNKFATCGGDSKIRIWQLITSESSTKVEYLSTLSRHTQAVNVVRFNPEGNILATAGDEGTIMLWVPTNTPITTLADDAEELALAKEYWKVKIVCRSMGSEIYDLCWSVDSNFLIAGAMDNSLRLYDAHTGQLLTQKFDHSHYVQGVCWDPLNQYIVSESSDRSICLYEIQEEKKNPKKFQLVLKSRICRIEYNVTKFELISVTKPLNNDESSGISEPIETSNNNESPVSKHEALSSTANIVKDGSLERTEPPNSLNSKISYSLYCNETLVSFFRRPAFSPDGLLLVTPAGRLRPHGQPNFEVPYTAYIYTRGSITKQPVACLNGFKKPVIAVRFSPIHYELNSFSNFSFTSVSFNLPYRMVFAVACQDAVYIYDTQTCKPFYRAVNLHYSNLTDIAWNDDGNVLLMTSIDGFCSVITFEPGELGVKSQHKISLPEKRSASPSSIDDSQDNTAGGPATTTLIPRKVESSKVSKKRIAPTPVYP
# T2 sequence 3: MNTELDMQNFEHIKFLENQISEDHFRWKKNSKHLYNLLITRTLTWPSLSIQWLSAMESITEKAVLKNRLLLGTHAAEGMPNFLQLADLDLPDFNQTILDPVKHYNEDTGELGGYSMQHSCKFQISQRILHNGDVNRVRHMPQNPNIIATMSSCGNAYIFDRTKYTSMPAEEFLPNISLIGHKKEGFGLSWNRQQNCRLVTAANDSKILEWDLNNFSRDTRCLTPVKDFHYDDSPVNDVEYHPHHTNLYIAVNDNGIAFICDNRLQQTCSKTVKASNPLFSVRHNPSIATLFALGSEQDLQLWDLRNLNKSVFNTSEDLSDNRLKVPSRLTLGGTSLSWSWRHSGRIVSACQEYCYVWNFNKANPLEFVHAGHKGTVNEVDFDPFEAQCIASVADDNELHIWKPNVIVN
# [3] = biological target: T3, Pcf1-PIP*;Pcf2;Pcf3 (Schizosaccharomyces …, UniProt Q1MTN9;O13985;Q9Y825 1-544;1-512;1-408, Q172A;L175A;F178A;F179A||)
# T3 sequence 1: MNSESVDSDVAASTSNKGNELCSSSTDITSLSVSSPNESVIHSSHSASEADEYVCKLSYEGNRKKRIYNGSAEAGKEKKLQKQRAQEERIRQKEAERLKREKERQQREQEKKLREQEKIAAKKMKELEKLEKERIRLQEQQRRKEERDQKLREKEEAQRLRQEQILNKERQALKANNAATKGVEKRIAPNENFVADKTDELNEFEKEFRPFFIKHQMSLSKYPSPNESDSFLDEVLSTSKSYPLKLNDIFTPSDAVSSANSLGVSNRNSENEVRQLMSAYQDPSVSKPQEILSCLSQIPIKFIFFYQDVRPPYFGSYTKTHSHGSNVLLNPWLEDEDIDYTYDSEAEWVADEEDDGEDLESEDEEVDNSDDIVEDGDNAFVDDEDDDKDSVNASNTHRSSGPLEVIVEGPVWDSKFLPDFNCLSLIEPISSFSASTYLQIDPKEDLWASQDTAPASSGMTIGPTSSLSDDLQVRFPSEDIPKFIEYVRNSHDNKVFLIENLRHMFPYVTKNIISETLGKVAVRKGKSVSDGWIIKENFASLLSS
# T3 sequence 2: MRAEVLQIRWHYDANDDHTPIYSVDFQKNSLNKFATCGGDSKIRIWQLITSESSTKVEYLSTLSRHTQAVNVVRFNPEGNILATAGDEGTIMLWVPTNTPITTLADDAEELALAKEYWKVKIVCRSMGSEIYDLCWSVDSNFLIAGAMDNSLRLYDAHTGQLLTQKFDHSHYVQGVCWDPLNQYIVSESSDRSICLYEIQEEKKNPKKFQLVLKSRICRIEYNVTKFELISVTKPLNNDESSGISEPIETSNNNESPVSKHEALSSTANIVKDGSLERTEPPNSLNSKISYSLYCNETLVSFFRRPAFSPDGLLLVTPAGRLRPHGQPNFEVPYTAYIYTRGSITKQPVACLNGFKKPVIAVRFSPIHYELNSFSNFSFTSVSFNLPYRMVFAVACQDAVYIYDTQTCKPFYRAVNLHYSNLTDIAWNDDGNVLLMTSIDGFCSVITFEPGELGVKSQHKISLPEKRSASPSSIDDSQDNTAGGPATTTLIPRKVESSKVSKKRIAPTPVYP
# T3 sequence 3: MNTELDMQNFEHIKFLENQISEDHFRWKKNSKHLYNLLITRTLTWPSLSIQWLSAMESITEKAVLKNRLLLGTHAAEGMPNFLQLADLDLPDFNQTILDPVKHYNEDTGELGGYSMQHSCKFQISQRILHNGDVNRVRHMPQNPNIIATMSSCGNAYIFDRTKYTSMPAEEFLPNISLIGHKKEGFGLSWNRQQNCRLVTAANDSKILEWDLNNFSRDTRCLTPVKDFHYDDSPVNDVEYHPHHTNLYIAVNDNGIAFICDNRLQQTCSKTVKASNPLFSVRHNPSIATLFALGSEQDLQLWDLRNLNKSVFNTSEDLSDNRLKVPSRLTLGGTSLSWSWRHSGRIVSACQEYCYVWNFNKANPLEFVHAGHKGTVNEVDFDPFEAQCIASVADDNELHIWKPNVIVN
# [4] = biological target: T4, Pcf1_KER-PIP (Schizosaccharomyces pombe, UniProt Q1MTN9 56-185)
# T4 sequence: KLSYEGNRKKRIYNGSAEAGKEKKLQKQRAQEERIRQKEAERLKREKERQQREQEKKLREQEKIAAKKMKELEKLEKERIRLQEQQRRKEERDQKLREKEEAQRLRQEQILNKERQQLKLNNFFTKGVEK
binder,measurement,setting,value
"40 bp dsDNA, Alexa488 (dsDNA) DNA 1: ATCAATATCCACCTGCAGATACTACCAAAAGTGTATTTGG DNA 2: CCAAATACACTTTTGGTAGTATCTGCAGGTGGATATTGAT",apparent K (half saturation),[1],1100 ± 200 nM
same,apparent K (half saturation),[2],700 ± 100 nM
same,apparent K (half saturation),[3],700 ± 100 nM
same,apparent K (half saturation),[4],1900 ± 300 nM
